This note sets out measurements from the domain aggregation screens of Martell et al. (2025).

The nature of this data set: soluble fraction after stress (log2 fold change); higher = more stays soluble; pooled small domains, quantitative proteomics. To be noted: stress: pH 4. The method in brief:
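Aggregation propensity here comes from the fold change in the soluble amount of each small protein domain after acid stress, measured in pooled custom libraries by high-throughput quantitative proteomics. The acid stress was pH 4. On the log2 scale, higher values mean more of the domain stayed soluble.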
Take “HMPDLQKAIDDLLQVVDKRLNTSFESILNEVNSEKEAVAFFLALLEAVRWGFVKASQSDEGIKIEK”: the “soluble fraction (log2)” value was -0.387. Regarding “HMPDLSAEERNIVEALQKSNDLQVNLIAVKTGMDMGTLSATLFGLEMKGLVKLMAGGTYHLI”, the “soluble fraction (log2)” value amounted to 0.191.

Consider “HMPDLSEDEEKIVSLLRDNNDLNVNIIVMRTQLPSATVTSSLFSLELKGVVRMYAGGMYHLM”, for which the “soluble fraction (log2)” value was found to be 0.0385. As to “HMPDLSYVDEVLNRYKGHKGTLITVLQQVQAHKGYLEKEALERVARSMGVPTARIYGVVTFYAQFR”, the “soluble fraction (log2)” value is 0.099.

In the case of “HMPDPVHAAYLRLAVLLTEQAIGPQVTEQQIRDRFALTRRQTSDLMGRLIREGIAEKRAGYGWNINTELTA”, the “soluble fraction (log2)” value is -0.748.

In the case of “HMPDVAIMNVSVEPEKKVVRLQVKAISLEALLDFSTRLEAIPARVELQNHTPSKELSQKWAVNATLIVIY”, the “soluble fraction (log2)” value is -0.0366. As to “HMPDYYAILEVERTADAKTIKAAYRKLALAYHPDRNPGDQAAEERFKQINEAYAVLSDPEKRARYDRYGSV”, the “soluble fraction (log2)” value stood at 0.139. For the sequence “HMPEFKDMLKFFRMREHLSQSELAEKLGISASTVSMYEVGRRQPDFETEEKIADFFNTDLNTLRG”, the “soluble fraction (log2)” value is -0.169. Turning to “HMPEGTYLEKLAIENNNLQLIGLSREASQLVQLLQDAPQWRKVNLTGVLQADGAASGRDRFTMTAELQ”, the “soluble fraction (log2)” value was found to be 0.187.

For the sequence “HMPEKNQITHLIRLIDDRDEFVRKRVREQLIKLGEDAIPFLEMAAKTENLEIQRIASEIIQAIIPRQ”, the “soluble fraction (log2)” value is -0.282. For the sequence “HMPELPPHELLRALMVEHDIKQSELPEVGPQPVVSDVLAGKRALNLRQVAALAARFHVPMEVFT”, the “soluble fraction (log2)” value is -0.015. The result for “HMPELSITDADIIVAGGRGMGSAENFGLIRELAGLLGAAVGASRVVVDAEWVDQKHLIGQTGK” reads -0.507; that for “HMPELTASDEADLKALVGGDQGFEQMANWARSNLGEEEINRFDAVVDSNNKDAIHMAIQAMQARMNA”, -0.394. Take “HMPELTERELEVLLLTARGLPSSEAARLLFITRRTVAAHLTSIYGKLGARNKTEAVLAALKRGIIMLDQIG”: the “soluble fraction (log2)” value was -1.46. On to “HMPESYFEMLQKLLETYALPQEGTIYFSAADLARMPQKFEDVIEQTAQKKGGHLVVSKEPKDMDGGFVLV”, for which the “soluble fraction (log2)” value was -1.62. The result for “HMPEVAHTIDMEAVNKHWDELPEREQRILVMRFYGNLTQTEIGERLGISQMHVSRLLARALSHLKSRLLD” reads -0.046; that for “HMPEVYPFEVAEDDAGKRLDVFLSEEIEEFTRSFIQKLIAGGLASVNRAPARASYRVKPRDLVELQVPE”, -0.158; that for “HMPFNREYWIEQLLKEVGLMGTPYAELDKHEVELDSPTGRASGFKVNAKTYVDQQLLFIENEYNNQPE”, -0.899.

For “HMPFREGDEVFVELVEPHMYNEDDAVAKLDGYVVAVRGAAGLVGQKVLVRIERVGRSSAEATLVA”, the “soluble fraction (log2)” value was -0.451. As for “HMPGEIKKIPINSISYQDLKQHPYFDAYLAKQVIKYRETKGRIENIEQFREATRAYQSLIEKVTPYLDFE”, the “soluble fraction (log2)” value is -0.268. Take “HMPGGLSAEDVEKMVEKVLTVNGDVVEEIRSGRDPKGKKIKFLAGLVMRDARGQADAAAVSGILERRLKEG”: the “soluble fraction (log2)” value came out at 0.371. With “HMPGLITLEAAKTTALNHAKLTADQVTFVKQKLDRDDGRQVYEIEFYTSDYKEYDYEIDAVSGLILEVDYD”, the “soluble fraction (log2)” value is -0.33. For “HMPGLPLWAFSTRGSAIHTGASFRDGDGLLFGPESRGLPDWLLEEVGQDRVLRLPMRPGSRSLNLSNAV”, the “soluble fraction (log2)” value is -1.7. Take “HMPGPAEMPGWITARAKKLGGQITPEAARALAAEMGSDTEQASREIEKLLTYVDYRRPVEEEDVALLTA”: the “soluble fraction (log2)” value came to 0.00808. For the sequence “HMPGRKTTFEERLSIIEDLIKHDVNYSWAVDKYHVSYQQVYGWYQKYRKSGNDPQSLRDRRGK”, the “soluble fraction (log2)” value is at least 0.43. For “HMPGRPSRISDAVKDQIDHDLRKNPRDLGYSQNLWDGKLLSHHLKERYQITLGIRQAQRLFHQLGFRQR”, the “soluble fraction (log2)” value is -0.0409. Take “HMPGVLEVDTGGVAAVAYVDGVEVGRVPGELQIAAGTKTLMLKADRYLDYVQSLEIDGLGKRQLLVATLQS”: the “soluble fraction (log2)” value is -0.831. In the case of “HMPGVTTQLHRLNGTEETYIIKRGDGVLEIDGEKSELQLGDAIIIPAGASQKISNIGDEDLE”, the “soluble fraction (log2)” value was -0.229.

For “HMPHFFISTSDVNQDIITVSDKENFHHIARVLRSKVGETLLLVDENRTQYKVVIQNIDSKSITTKVVETLK”, the “soluble fraction (log2)” value was -0.697. On to “HMPHFGVVLQMDDWKTLRDRLEARDDIDWVMKPNLRFEGQPGEQATLFIRDPSGNALEFKGFADLSQVF”, for which the “soluble fraction (log2)” value is -1.64. Take “HMPHSTTDFSVSPDERQIVYSTNLQGRYDLWALDHNQGYPYPLTKKGQMSFFIKHLPGSQMILTGFD”: the “soluble fraction (log2)” value was 0.0618. Regarding “HMPIDQAKRKKEIIQNFGIRKIYKFSEIFDLKFGRDNIIVTFLIILDMIKEGVVEINENKEEIEFEYK”, the “soluble fraction (log2)” value was -0.04. Turning to “HMPIKYTHKGYTINVSRSKMNGTTFVKVVDPKGQVIQQSQDNRIQDVNQLVTTMKQYIDTLKPS”, the “soluble fraction (log2)” value was -0.0336. The result for “HMPILRDEVYLSIKEAILTGELAPGERISIGRLLPQIGFSPTPIREALLKLEQEGFVSRLQRGGFIVSR” reads -0.471. As to “HMPIQLLSEKYMDEHWDELDKDEVSLYQNMSIRFLLKHEDDINWKLYSTNPFISIDTIDFFKDKISWVNI”, the “soluble fraction (log2)” value is -1.45. The result for “HMPKAKASARNDTRTRLLTIGTEVLSQKGFASTGVEEILSVAGVPKGAFYYYFESKAAFGLAVIENYE” reads 0.22; that for “HMPKAMAIMSEIAGTVHIDDTKKSRHVEVTGVDDNGAPVTKSYLIPFGHRLKVMEGDVLVKGALLT”, -0.0288. With “HMPKHHIESVIPENFAGERLDKVLAVLWGTFSRAQLTRWIRDGSLLLDGHKVKPNTKVDGSEKIVLQAEVA”, the “soluble fraction (log2)” value turned out to be 0.0479. In the case of “HMPKNEHETKAIGNQTGGRVFLFLNTDNINRDYNMYISKQVKFVREISQEYYGKVAVFEDLYGNLWDLIE”, the “soluble fraction (log2)” value was -0.222. As for “HMPKNRTDYVQDVLKSLGRPAHYKEITQIINAMLPKEAQYSAKSIQVVLGSSPLFIRVGTGTYALVE”, the “soluble fraction (log2)” value was -0.79. On to “HMPKNVEVPNVVGLSLPMAKLRLTQLGLHIVVRDSVWSETGQPNTILDQDPQPGKKIKPESTVYVKVN”, for which the “soluble fraction (log2)” value was at least 0.43. The result for “HMPKRYAGPDIIAIYGSDVFFRVGSGDGLMVIPVGRSMDNIEVVSVDAPRSVELMWKDGGPFTVPV” reads -0.218; that for “HMPKSKTPDDAAEEFRTAFSALDMDGKVTVKDMAEYMGVIDKTVYARLKKMGDEFTLDKGVITKKT”, -0.084; that for “HMPKTATIVIDLNYADAKEIVENLQTILAGETKDISVAPHPSANQIIASGDRWEVENISTIIKQLDR”, -1.02.

Take “HMPKTLTEAAYEDIKQWILEGEITPGSKISLEDTASRLEVSMTPIREALTKLQQEGLVEYIPRAGWRASK”: the “soluble fraction (log2)” value was -0.294.

For “HMPLAQRFGLTVAQARVLDLLAEGRSNRQIGELLGLTEGTVKIHVSAIMKAMGVSNRAEAALMANRKR”, the “soluble fraction (log2)” value is -0.29.

With “HMPLDKDTTLDEIYRRFNMEHPADYKGHSLSMGDIVVFRQDGKQTAYYVDEGADYRQVPEFFVK”, the “soluble fraction (log2)” value is -0.173. As to “HMPLDPFVVDALRDEIINTIKQHEPRVDLQKVQVQPIYTQNRVNISVQYKIVGLPIVEDITFVLQRP”, the “soluble fraction (log2)” value is 0.135.

As to “HMPLEKGVVILDVTPSSAKVAVDGTSVETTYPLRLSAGLHQLSAEADGYDSITEYFKVETEKTTVTLDLSK”, the “soluble fraction (log2)” value came out at 0.234. Take “HMPLEQAELRLDLKQAILQMDRQTQELLLLRYVDGLSPGEAGKVLELSRFAVYRREKEALRKLRDYFSH”: the “soluble fraction (log2)” value is -0.834.

Consider “HMPLLSEWDAALEELWAKLGDVPMDPETERMDAPFLGFPAGTPREDIWHWFDERHSKGVAHLLYG”, for which the “soluble fraction (log2)” value was -1.78. With “HMPLQYRLTVQPTPTNARVRLVNSAFTYRPGVALPPGSYIVEVSSSGYGAKRQAVQIADGDVTVPVELEKI”, the “soluble fraction (log2)” value is 0.138.

“HMPLYKYYTSYQIEPGDTLTSIAQKYTINSDVSVQDYIDEVKKNNNLVSDKINSGSYLVVSYYSNEY”: the “soluble fraction (log2)” value is -1.24.

On to “HMPNIQLARNLKYLRLAYGLTQDDLGAFLNISRQAYSNYENLKRSPDLDSLIRLASLYHLSLDDLVSR”, for which the “soluble fraction (log2)” value is -1.24. For the sequence “HMPNTLAGIERYLGSGMVKGIGPVYASRLVSAFGTAVFDVIEQTPERLREIDGIGEKRTRKITSGWADQ”, the “soluble fraction (log2)” value was -0.242.

Turning to “HMPNYIDAISALLTLKGVGDRKHASTMANILNLQYNSAKQKLDGKRGITLDEVKKVFQYFNEPF”, the “soluble fraction (log2)” value is -0.76.

For the sequence “HMPPAPGHDLTEREREVLRLLVEGLSNQEISDRLVISQSTVKNHVSSVLSKLDAANRAEAVALALKNQL”, the “soluble fraction (log2)” value is -0.547. Turning to “HMPPELSDEVMEEAMSYLKNQYLNHGVKLEDYPALNKLFVDEAFRSEVIRKTQSNYKISYQSAMASLD”, the “soluble fraction (log2)” value was -0.928. Turning to “HMPPENVSVRREQIAEDKKTVYNVWVTKGNKTVLYSKVVYAWGGVYFFRDLNTSISENMYKQADAGLVN”, the “soluble fraction (log2)” value was -0.0222. On to “HMPPGQIVNEALQRAGNSTPTGTAISAQDDIKLYTSALAELATQGDTSSASVAKLREALQTAQVAFYNAV”, for which the “soluble fraction (log2)” value came to 0.0927. As to “HMPPITIVPNDNGVPIIRSQTPEISTAVNVELKAAGINTHTIDGTSIRVPKAQAQVAQQIVSRVNTRFT”, the “soluble fraction (log2)” value was 0.266. For the sequence “HMPPNHADLKSSGLKATLPRLKILEIFQNSQVRHLSAEDVYKLLLAENLDVGLATVYRVLTQFEQAGL”, the “soluble fraction (log2)” value was -0.511.

“HMPPNRDDEHLQALRDYYAANRRIPSLQRVASLLGFSSRSAAVKLMGRLADEGFIERTADDDAWITGKRFF”: the “soluble fraction (log2)” value is -0.371. Consider “HMPPNVLSEREQEVLQLAADGMSNKEMGSELYIAPTTVRDHMQSIMRKLQVNSRTAAAVAGLKLGLLD”, for which the “soluble fraction (log2)” value is -0.422. “HMPPPTLVESAYNHLKADIISSYLKPDEKINLKDLSQRYQVSETPIKQALNRLISEGLIISVPRKGMWVH”: the “soluble fraction (log2)” value stood at 0.065. The result for “HMPPPVERAIRKLGHDLSLARRRRRISQDSMAQRMGASVSTVRRIEKGDPRIPIHFIARAMMILGDLKAL” reads -0.105; that for “HMPQFDRQAFGQRLRLLRDYREMTQQQVANFLNVDRSTYSYYENGKTEPSITVLMRMAELFSVTLDSLLNM”, -1.05.

“HMPQIDLYPFEVRIEQDNNAAEYAVRFLDVPNIIGSGASIDEAIVEARGNLKEYLDYLIDTNRDIPLPS”: the “soluble fraction (log2)” value is -1.43.
